Data published in the nanobody polyreactivity screen of Harvey et al. (2022).

Assay: yeast display, Sf9 membrane polyspecificity reagent, FACS + sequencing; frameworks hold sequencing errors
Outline: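 A nanobody's polyreactivity label depends on the gate it was sorted from. Yeast display cells were stained with 10% biotinylated, detergent-solubilized Sf9 membrane reagent for 1 hour at 4 °C, enriched on streptavidin microbeads and sorted by FACS. The low and high (top ~1%) gates were set on anti-HA fluorescence for expression and streptavidin fluorescence for reagent binding.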

Row | Sequence | polyreactivity (PSR sort gate)
1 | QVQLVESGGGLVQAGGSLRLSCAASGSTFGTYARGWYRQAPGKERELVAAISWSGGSTYYADSVKGRFTISRDNAKNTVYLQMNSLKPEDTAVYYCNAKTSIGTWVGDDYWGQGTQVTVSS | low polyreactivity
2 | QVQLVESGGGLVQAGGSLRLSCAASGSTFGTYVMGWYRQAPGKERELVAAISKRGGRTYYADSVKGRFTISRDNAKNTVYLQMNSLKPEDTAVYYCNAVYLYSGSSARYYWGQGTQVTVSS | high polyreactivity
3 | QVQLVESGGGLVQAGGSLRLSCAASGSTFGVYAMGWSRQAPGKERELDAAIRWSDGTTYYADSVKGRFTNSRDNAKNPVYLQMNSLKPEDTAVYYCAAVGYKRGTGRYGYWGQGTQVTVSS | high polyreactivity
4 | QVQLVESGGGLVQAGGSLRLSCAASGSTFGVYAMVWYRQAPGKERELVAAINYSGRTYYADSVKGRFTISRDNAKNTVYLQMNSLKPEDTAVYYCAARIIVDDVGTKYYYWGQGTQVTVSS | high polyreactivity
5 | QVQLVESGGGLVQAGGSLRLSCAASGSTFGVYTMGWYRQAPGKERELVAAITKSGGSTYYADSVKGRFTISRDNAKNTVYLQMNSLKPEDTAVYYCNTDYGRYLYYRYGYWGQGTQVTVSS | low polyreactivity
6 | QVQLVESGGGLVQAGGSLRLSCAASGSTFGWNAMGWYRQAPGKERELVAAISRSGGRTYYADSVKGRFTISRDNAKNTVYLQMNSLKPEDTAVYYCAADRSTTGGLRGYWGQGTQVTVSS | high polyreactivity
7 | QVQLVESGGGLVQAGGSLRLSCAASGSTFGWNAMGWYRQAPGKERELVAAISSRGGSTSYADSVKGRFTISRDNAKNSVYLQMNSLKPEYTAVYYCAAPYVYYRYGYWGLGTQVTVSS | low polyreactivity
8 | QVQLVESGGGLVQAGGSLRLSCAASGSTFGWNAMGWYRQAPGKERELVAAISSSGGITYYADSVKGRFTISRDNAKNTVYLQMNSLKPEDTAVYYCAAERDDDWVNYWGQGTQVTVSS | low polyreactivity
9 | QVQLVESGGGLVQAGGSLRLSCAASGSTFGWNAMGWYRQAPGKERELVAAISSSGGITYYAYSVKGRFTISRDKAKNTVSLQMNSLKPEDTAVYYCAAERDDDWGNYWGQGTQVTGSS | low polyreactivity
10 | QVQLVESGGGLVQAGGSLRLSCAASGSTFGWYALGWYRQAPGKERELVAAIRSNGGSTYYADSVKGRFTLSRDNAKNTVYLQINSLKPEDTAVYYCAARGSPSKHHWYDYWGQGTQVTVSS | low polyreactivity
11 | QVQLVESGGGLVQAGGSLRLSCAASGSTFGWYAMGWYRQAPGKERELVASITWDGGRTYYAHSVKGRFTISRDNAKNTVYLQMNSLKPEDTAVYYCAARGVSSPLNYWGQGSQVTVSS | low polyreactivity
12 | QVQLVESGGGLVQAGGSLRLSCAASGSTFGWYTMGWYRQAPGKERELVAAINYSGGSTYYADSVKGRFTISRDNAKNTVYLQMNSLKPEDTAVYYCATDQSTYLYGYYYWGQGTQVTVSS | low polyreactivity
13 | QVQLVESGGGLVQAGGSLRLSCAASGSTFGWYTMGWYRQAPGKERELVAAISSGGRTYYADSVKGRFTISRDNEKNTVYLQMNILKPEDTAVYYCAAGIYSSRHSPYGYWGQGTQVTVSS | high polyreactivity
14 | QVQLVESGGGLVQAGGSLRLSCAASGSTFGYNAMGWYRQAPGKERELVAAITRSGGSTDYADSVKGRFTISRDNAKNTVYFQMNSLKPEDTAVYYCAAEGTGLQRYGYFGDDGYWGQGTQVTVSS | low polyreactivity
15 | QVQLVESGGGLVQAGGSLRLSCAASGSTFGYNAMGWYRQAPGKERELVAAITWSGGSTYYADSVKGRFTISRDNAKNTVYLQMNSLKPEDTAAYYCAADDWYNSKWHYYYWGQGTQVTVSS | low polyreactivity
16 | QVQLVESGGGLVQAGGSLRLSCAASGSTFGYYAMGWSRQAPGKERELVAAITGSGGSTYYADSVKGRFTISRDNAKNTVYLQMNSLKPEDTAVYYCATSYLLGRYYEYYYWGQGTQVTVSS | high polyreactivity
17 | QVQLVESGGGLVQAGGSLRLSCAASGSTFGYYAMGWYRQAPGKERELVAAISASGSRTYYADSVKGRFTISRDNAKNTVYSQMNSQKPEDTAVYYCPALQYRRKIPTAYAGDYWGQGTQVTVSS | high polyreactivity
18 | QVQLVESGGGLVQAGGSLRLSCAASGSTFGYYAMGWYRQAPGKERELVAAITASGGGTYYADSVKGRFTISRDNAKNTFYLQMNSLKPEDTEVYYCNRGYDYWGQGTHVTVSS | low polyreactivity
19 | QVQLVESGGGLVQAGGSLRLSCAASGSTFGYYAMGWYRQAPGKERELVAAITGSGGRTYYADSVKGRFTISRDNAKNTVYLQMNSLKPEDTAVYYCAARTYRTEFAYGSWGQGTQVTVSS | low polyreactivity
20 | QVQLVESGGGLVQAGGSLRLSCAASGSTFGYYAMGWYRQAPGKERELVAAITSGGTTNYADSVKGRFTISRDNAKNTVYLQMNSLKPEDTAVYYCNAVGTFVRYWTDGRDGVTYDYWGQGTQVTVSS | low polyreactivity
21 | QVQLVESGGGLVQAGGSLRLSCAASGSTFGYYAMGWYRQAPGKERELVADISKSSGSTYYADSVKGRFTISRDNAKNTVYLQMNSLKPEDTAVYYCNRRYYYRTYDYWGQGTQVTVSS | high polyreactivity
22 | QVQLVESGGGLVQAGGSLRLSCAASGSTFGYYAMGWYRQAPGKERELVAVITRGGSTYYADSVKGRFTISRDNAKNTVYLQMNSLKQEDTAVYYCNARVLAVHYGYWGQGTQVTVSS | high polyreactivity

Row | Sequence | polyreactivity (PSR sort gate)
23 | QVQLVESGGGLVQAGGSLRLSCAASGSTFGYYDMGWYRQAPGKERELVATITKSGGTTRYADSVKGRFTISRDNAKNTVYLQMNSLKPEDTAVYYCAADGTWRLLDDYWGQGTQVTVSS | low polyreactivity
24 | QVQLVESGGGLVQAGGSLRLSCAASGSTFGYYGMGWYRQAPGKERELVAAISASGGRTYYADSVKGRFTISRDNAKITVYLQMNSLKPEDTAVYYCAATVYAWRSTYGYWGQGTQVTVSS | high polyreactivity
25 | QVQLVESGGGLVQAGGSLRLSCAASGSTFGYYTMGWSRQAPGKERELVAAITWSGGSTYYADSVKGRFTISRHNAKNTVYLQMNSLKAEDTAVYYCAADDYWTPFGYWGQGTQVTVSS | low polyreactivity
26 | QVQLVESGGGLVQAGGSLRLSCAASGSTFGYYTMGWYRQAPGKERELVAAISRSGGRTYYADSVKGRFTISRDNAKKAVYLQMNSLKPEVTAVFYCNADGTRYAGDDYWGQGTQVTVSS | high polyreactivity
27 | QVQLVESGGGLVQAGGSLRLSCAASGSTFHGYDMGWYRQAPGKERELVAAITSSGDDTYYADSEKGRFTISLDNAKNTVYLQMNSLKPEDTAVYYCAAEYTEGYTHDYWGQGTQVTVSS | low polyreactivity
28 | QVQLVESGGGLVQAGGSLRLSCAASGSTFHLYAMGWSRQAPGKERELVAVITSGDSTSYADSVKGRFTISRDNAKNTVYLQMNSLKPEDTAVYYCAADSYSGYNYWGQGTQVTVSS | low polyreactivity
29 | QVQLVESGGGLVQAGGSLRLSCAASGSTFHRYAKGSYRQAPGKERELVARIIGSGGSTYYADSVKGRFTISRDNAKNTVYLQMNSLKPEDTAVYYCAADGLYYTYGYDYWGQGTQVTVSS | low polyreactivity
30 | QVQLVESGGGLVQAGGSLRLSCAASGSTFHRYALGWYRQAPGKERELVATITSRGGITYYADSVKGRFTISRDNAKNTVYLQMNSLKPEDTAVYYCYRYDYWGQGTQVTVSS | low polyreactivity
31 | QVQLVESGGGLVQAGGSLRLSCAASGSTFHWYVMGWYRQAPGKERELVAAITWSGGSTYYADSVKGRLTISRDNAKNTVYLQMNSLKPEDTAVYYCNAVFWIWNAGYDYWGQGTQVTVSS | low polyreactivity
32 | QVQLVESGGGLVQAGGSLRLSCAASGSTFHYYAMGWYRQAPGKERELVAAISQSGSGTYYADSVKGRFTISRDNAKNTVYLLMNSLKPEDTAVYYCAKDITGLSRYRRDYWGQGTQVTVSS | low polyreactivity
33 | QVQLVESGGGLVQAGGSLRLSCAASGSTFHYYAMGWYRQAPGKERELVAAISSGGRTNYADSVKGRFTISRDNAKNTVYLQMNSLKPEDTAVYYCAARWSYTKGEFDYWGQGTQGTVSS | high polyreactivity
34 | QVQLVESGGGLVQAGGSLRLSCAASGSTFHYYVMGWYRQAPGKERELDAAIRRSGGTTYYADSVKGRFTISRDNAKNTVYLQMNSLKPEDTAVYYCAAYFFHYHFYQAAYDYWGQGTQVTVSS | low polyreactivity
35 | QVQLVESGGGLVQAGGSLRLSCAASGSTFIANAMGWYRQAPGKEREFVATISRRGGSTYYADSVKGRFTISRDNAKNTVYLQMNSLKPEDTAVYYCAARPLTYIRFRYYYWGQGTQVSVSS | high polyreactivity
36 | QVQLVESGGGLVQAGGSLRLSCAASGSTFIAYTMGWYRQAPGKERELVAAISGTGGTTYADSVKGRFTISRDNAKNTVYLQMNSLKPEDTAVYYCAAQYRYTYWGQGTQVTVSS | low polyreactivity
37 | QVQLVESGGGLVQAGGSLRLSCAASGSTFIDYAMGWYRQAPGKERELVAAITWSGSSTYYADSVKGRFTISRDNAKNTVYLQMNSLKPEDTAVYYCAARYWYQSYHTYGYYSWGQGTQVTVSS | low polyreactivity
38 | QVQLVESGGGLVQAGGSLRLSCAASGSTFIDYAMGWYRQAPGKERELVAGGSTNYADSVKGRFTISRDNAKNTVYLQMNSLKPEYTAVYYCNADALLYPYWGFDYWGQGTQVTVSS | low polyreactivity
39 | QVQLVESGGGLVQAGGSLRLSCAASGSTFIDYDMGWYRQAPGKERELVAAITSSGSTYYADSVKGRFTISRDNAKNTVYLQMNSLKPEDTAVYYCNARVGPELHDYWGQGTQVTVSS | low polyreactivity
40 | QVQLVESGGGLVQAGGSLRLSCAASGSTFIDYGMGWYRQAPGKERELVAAIDLDSGDTYYADSVKGRFTISRENAKNTVYLQMNSLKPEDTAVYYCAAQYWYRYNYWGQGTQVTVSS | low polyreactivity
41 | QVQLVESGGGLVQAGGSLRLSCAASGSTFIENAMGWYRQAPGKERELVAAINRGGTTYYADSVKGRFTISRDNAKNTVYLQMNSLKPEDTAVYYCAADDPSYANRFIHDYWGQGTHVTVSS | low polyreactivity
42 | QVQLVESGGGLVQAGGSLRLSCAASGSTFIGNAMGWYRQAPGKERELVAAISRTGGSTYADSVKGRFTISRDNAKNTVYLQMNSLKPEDTAVYYCAAKYYYIYYYWGQGTQVTVSS | high polyreactivity
43 | QVQLVESGGGLVQAGGSLRLSCAASGSTFIGNAMGWYRQAPGKERELVAAITRSGGSTFYADSVKGRFTISRDNAKNTVYLQMNSLKPEDTAVYYCAARNGAYPALTAGDYWGQGTQVTVSS | high polyreactivity
